Experimental data as given in patent US20150064134A1.

Key:
Assay in all cases: cell-based or functional assay
MSSK1(h) (human) = MSSK1(h) (human) (UniProt Q9UPE1)
DAPK2(h) (human) = DAPK2(h) (human) (UniProt Q9UIK4)
EphA4(h) (human) = EphA4(h) (human) (UniProt P54764)
PASK(h) (human) = PASK(h) (human) (UniProt Q96RG2)
SGK(h) (human) = SGK(h) (human) (UniProt O00141)
CSK(h) (human) = CSK(h) (human) (UniProt P41240)
CK2(h) (human) = CK2(h) (human) (UniProt P68400)
ULK2(h) (human) = molecular target: T1, ULK2(h) (human) (UniProt Q8IYT8)
T1 sequence (looked up): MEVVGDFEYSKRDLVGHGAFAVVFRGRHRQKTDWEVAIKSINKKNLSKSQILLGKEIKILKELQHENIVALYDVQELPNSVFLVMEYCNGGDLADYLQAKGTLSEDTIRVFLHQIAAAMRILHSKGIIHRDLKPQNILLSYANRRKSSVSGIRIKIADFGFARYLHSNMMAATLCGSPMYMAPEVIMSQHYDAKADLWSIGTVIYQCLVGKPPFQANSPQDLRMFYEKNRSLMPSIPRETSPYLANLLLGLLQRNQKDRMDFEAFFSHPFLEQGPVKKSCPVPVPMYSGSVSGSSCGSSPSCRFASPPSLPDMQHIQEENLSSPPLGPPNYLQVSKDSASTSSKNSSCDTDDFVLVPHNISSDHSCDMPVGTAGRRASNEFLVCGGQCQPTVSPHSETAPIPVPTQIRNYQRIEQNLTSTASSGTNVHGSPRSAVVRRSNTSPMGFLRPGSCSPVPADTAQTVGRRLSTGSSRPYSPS

Txk(h) (human) = molecular target: T2, Txk(h) (human) (UniProt P42681)
T2 sequence (looked up): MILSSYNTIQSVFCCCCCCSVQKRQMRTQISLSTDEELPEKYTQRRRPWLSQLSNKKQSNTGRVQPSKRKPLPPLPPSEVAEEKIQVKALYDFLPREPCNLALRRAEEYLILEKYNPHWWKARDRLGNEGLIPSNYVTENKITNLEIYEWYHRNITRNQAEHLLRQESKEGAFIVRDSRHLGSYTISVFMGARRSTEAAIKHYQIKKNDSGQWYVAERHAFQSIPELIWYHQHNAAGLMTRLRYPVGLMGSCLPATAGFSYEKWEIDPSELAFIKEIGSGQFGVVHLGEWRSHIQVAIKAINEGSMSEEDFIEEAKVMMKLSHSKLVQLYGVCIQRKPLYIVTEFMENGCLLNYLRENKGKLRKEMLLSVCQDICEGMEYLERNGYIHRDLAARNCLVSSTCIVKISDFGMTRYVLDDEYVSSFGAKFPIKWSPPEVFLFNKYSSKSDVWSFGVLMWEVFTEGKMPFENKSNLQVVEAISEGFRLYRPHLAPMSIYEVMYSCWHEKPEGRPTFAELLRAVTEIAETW

PRAK(h) (human) = PRAK(h) (human) (UniProt Q8IW41)
PRAK(h) (human), sequence (Q8IW41 whole entry): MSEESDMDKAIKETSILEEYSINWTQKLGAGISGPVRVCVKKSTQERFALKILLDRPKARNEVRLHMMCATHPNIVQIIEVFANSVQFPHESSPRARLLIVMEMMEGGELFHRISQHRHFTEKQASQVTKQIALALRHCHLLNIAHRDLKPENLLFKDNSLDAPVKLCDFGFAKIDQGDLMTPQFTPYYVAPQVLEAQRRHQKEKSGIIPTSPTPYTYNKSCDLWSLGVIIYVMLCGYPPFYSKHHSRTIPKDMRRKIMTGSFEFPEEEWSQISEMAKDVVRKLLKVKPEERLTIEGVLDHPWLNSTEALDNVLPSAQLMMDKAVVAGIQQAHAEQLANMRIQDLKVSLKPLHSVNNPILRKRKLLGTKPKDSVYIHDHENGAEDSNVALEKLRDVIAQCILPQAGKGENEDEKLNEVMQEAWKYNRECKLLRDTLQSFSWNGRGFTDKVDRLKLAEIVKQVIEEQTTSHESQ

Rsk1(h) (human) = Rsk1(h) (human) (UniProt Q15418)
Rsk1(h) (human), sequence (Q15418 whole entry): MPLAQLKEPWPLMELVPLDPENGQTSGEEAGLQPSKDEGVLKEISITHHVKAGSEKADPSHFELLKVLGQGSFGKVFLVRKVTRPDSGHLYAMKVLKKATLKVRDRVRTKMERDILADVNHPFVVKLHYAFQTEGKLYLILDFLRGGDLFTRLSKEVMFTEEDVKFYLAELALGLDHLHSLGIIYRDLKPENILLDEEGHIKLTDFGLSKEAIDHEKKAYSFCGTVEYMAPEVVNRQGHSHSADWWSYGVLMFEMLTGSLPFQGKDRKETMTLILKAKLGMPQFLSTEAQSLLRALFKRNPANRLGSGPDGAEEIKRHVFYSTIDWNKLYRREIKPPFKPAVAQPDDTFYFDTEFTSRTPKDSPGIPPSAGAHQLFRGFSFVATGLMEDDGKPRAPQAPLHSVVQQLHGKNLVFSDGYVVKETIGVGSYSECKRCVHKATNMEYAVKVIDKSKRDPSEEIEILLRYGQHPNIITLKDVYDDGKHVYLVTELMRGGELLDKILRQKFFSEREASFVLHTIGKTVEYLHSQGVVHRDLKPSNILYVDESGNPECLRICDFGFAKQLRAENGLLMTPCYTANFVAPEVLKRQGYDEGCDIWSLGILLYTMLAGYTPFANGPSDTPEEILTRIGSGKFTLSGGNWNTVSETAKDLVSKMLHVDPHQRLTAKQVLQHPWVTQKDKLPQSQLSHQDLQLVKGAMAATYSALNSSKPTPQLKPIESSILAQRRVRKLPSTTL

LIMK1(h) (human) = LIMK1(h) (human) (UniProt P53667)
cKit(D816H)(h) (human) = cKit(D816H)(h) (human) (UniProt P10721)
cKit(D816H)(h) (human), sequence (P10721 544-976 D816H): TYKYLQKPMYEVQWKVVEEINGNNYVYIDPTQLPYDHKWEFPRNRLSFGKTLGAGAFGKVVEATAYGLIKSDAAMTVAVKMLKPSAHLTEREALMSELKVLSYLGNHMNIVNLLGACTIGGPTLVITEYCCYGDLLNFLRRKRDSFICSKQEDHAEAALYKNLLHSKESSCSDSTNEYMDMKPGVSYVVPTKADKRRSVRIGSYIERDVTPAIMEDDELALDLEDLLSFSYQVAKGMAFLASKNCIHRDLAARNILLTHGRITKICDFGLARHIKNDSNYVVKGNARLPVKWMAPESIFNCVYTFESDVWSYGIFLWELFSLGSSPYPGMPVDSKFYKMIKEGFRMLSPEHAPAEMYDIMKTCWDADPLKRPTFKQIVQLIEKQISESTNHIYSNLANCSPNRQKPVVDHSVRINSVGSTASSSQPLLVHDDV

MST1(h) (human) = molecular target: T3, MST1(h) (human) (UniProt Q13043)
T3 sequence (looked up): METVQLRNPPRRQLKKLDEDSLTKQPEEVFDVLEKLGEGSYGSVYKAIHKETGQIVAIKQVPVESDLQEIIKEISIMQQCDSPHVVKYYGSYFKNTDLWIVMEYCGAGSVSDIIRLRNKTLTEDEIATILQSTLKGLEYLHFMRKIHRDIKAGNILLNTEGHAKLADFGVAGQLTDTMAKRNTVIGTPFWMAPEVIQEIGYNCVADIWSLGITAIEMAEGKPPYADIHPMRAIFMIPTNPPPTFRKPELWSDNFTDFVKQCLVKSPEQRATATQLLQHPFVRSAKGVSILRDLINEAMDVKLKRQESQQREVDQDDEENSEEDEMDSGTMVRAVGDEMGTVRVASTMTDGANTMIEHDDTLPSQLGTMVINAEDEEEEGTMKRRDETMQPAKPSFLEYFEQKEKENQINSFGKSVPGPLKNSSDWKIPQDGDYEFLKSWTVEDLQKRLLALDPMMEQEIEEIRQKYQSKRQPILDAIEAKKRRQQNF

Axl(h) (human) = molecular target: T4, Axl(h) (human) (UniProt P30530)
T4 sequence (looked up): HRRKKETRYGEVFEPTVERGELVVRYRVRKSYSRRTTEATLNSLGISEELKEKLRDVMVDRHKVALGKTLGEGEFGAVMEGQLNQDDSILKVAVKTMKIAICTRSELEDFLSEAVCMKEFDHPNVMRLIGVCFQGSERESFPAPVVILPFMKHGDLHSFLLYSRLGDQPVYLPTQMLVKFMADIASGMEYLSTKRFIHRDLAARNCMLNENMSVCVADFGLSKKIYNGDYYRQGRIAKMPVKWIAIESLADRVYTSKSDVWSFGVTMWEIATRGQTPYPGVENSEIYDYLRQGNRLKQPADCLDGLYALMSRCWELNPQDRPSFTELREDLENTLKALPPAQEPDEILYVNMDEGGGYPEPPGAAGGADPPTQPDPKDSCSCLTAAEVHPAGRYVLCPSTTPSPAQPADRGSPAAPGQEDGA

CaMKIIβ(h) (human) = CaMKIIβ(h) (human) (UniProt Q13554)
CaMKIIβ(h) (human), sequence (Q13554 whole entry): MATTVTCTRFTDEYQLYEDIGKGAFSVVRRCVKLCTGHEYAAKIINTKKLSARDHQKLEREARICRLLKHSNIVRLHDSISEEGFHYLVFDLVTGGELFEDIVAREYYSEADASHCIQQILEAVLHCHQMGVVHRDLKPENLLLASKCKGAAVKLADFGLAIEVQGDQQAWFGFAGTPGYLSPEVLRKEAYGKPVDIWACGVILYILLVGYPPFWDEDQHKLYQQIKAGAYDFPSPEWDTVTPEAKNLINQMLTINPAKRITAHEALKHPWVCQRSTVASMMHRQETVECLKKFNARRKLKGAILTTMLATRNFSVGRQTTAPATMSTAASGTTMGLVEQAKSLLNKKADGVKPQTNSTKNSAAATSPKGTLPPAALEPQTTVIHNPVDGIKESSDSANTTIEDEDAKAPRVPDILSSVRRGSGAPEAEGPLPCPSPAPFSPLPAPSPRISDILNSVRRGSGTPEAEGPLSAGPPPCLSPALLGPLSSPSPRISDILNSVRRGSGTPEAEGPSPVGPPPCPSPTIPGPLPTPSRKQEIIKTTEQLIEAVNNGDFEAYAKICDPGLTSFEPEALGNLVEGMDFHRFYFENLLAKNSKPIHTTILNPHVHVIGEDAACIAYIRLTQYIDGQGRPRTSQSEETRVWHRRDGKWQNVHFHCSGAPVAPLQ

SGK2(h) (human) = molecular target: T5, SGK2(h) (human) (UniProt Q9HBY8)
T5 sequence (looked up): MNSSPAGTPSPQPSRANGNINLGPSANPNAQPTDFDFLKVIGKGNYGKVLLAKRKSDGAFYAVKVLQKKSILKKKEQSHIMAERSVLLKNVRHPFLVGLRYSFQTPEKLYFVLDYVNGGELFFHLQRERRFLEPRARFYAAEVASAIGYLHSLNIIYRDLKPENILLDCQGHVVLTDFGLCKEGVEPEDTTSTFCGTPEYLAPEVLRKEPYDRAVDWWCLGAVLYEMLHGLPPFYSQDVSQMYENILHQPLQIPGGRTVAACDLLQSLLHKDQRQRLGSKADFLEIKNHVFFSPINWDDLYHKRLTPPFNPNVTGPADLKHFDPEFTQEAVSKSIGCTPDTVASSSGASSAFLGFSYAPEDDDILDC

EphA4(h) (human), sequence (P54764 570-986 limits assumed): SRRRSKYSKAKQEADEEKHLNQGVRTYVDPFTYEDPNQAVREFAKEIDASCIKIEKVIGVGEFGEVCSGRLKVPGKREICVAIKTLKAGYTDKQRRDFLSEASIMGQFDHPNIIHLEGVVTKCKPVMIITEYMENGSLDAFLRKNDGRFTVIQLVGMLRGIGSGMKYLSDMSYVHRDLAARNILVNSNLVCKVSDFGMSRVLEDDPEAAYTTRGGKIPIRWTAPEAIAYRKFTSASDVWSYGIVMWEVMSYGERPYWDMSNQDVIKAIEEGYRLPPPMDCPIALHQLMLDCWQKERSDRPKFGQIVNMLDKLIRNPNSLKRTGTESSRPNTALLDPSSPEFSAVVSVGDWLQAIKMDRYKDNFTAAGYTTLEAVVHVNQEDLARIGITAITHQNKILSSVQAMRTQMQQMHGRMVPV
SGK(h) (human), sequence (O00141 60-431 limits assumed): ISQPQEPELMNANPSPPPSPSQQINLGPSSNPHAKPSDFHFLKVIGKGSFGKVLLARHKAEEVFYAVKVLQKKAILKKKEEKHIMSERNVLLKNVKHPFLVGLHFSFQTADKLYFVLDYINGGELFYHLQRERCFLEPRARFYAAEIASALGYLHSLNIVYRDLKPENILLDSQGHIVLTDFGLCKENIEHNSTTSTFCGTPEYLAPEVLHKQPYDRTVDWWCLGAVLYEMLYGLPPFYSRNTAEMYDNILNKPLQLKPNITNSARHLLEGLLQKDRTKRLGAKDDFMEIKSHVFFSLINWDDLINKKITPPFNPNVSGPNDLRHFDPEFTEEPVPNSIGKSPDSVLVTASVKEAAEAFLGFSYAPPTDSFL

Row | % activity at 100 µM (MSSK1(h) (human)) [%] | % activity at 100 µM (DAPK2(h) (human)) [%] | % activity at 100 µM (EphA4(h) (human)) [%] | % activity at 100 µM (PASK(h) (human)) [%] | % activity at 100 µM (SGK(h) (human)) [%] | % activity at 100 µM (CSK(h) (human)) [%] | % activity at 100 µM (CK2(h) (human)) [%] | % activity at 100 µM (ULK2(h) (human)) [%] | % activity at 100 µM (Txk(h) (human)) [%] | % activity at 100 µM (PRAK(h) (human)) [%] | % activity at 100 µM (Rsk1(h) (human)) [%] | % activity at 100 µM (LIMK1(h) (human)) [%] | % activity at 100 µM (cKit(D816H)(h) (human)) [%] | % activity at 100 µM (MST1(h) (human)) [%] | % activity at 100 µM (Axl(h) (human)) [%] | % activity at 100 µM (CaMKIIβ(h) (human)) [%] | % activity at 100 µM (SGK2(h) (human)) [%] | Substance
1 | 77 | 32 | 88 | 29 | 48 | 49 | 90 | 122 | 48 | 128 | 46 | 88 | 126 | 14 | 52 | 2 | 56 | MMI-0300 (peptide)
2 | 75 | 16 | 65 | 28 | 54 | 16 | 101 | 131 | 37 | 118 | 54 | 92 | 143 | 6 | 41 | 11 | 98 | MMI-0400 (peptide)
3 | 22 | 3 | 48 | 9 | 2 | 2 | 93 | 124 | 10 | 95 | 34 | 87 | 194 | 3 | 12 | 3 | -1 | MMI-0500 (peptide)
